From the supplement of paper PMC6755084

B1: minF1; a variant is named by its letters at N, in order (parent)
chain: GAGACCGCAACTGAAAAGTTGTTANNNNAANGNNNGGTTGAATTTCTGCACGTAGAAGCAAAAGGC
B2: minF1; a variant is named by its letters at N, in order (parent)
chain: GAGACCGCAACTGAAAAGTTGTTNNNNAANNNNNGGNTNAATTTCTGCACGTAGAAGCAAAAGGC

Variants of: B1
Assay: fraction ligated after 30 min (ligated reads / total reads); higher = more ligase activity
Settings: with F1*subA RNA substrate (template-directed ligation), 42 °C
Outline: (§1)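 Fraction ligated for every variant was calculated as the share of total reads that came from ligated RNA. Minimized ligase ribozyme variants were made from oligo-pool templates by PCR amplification, T7 transcription and gel purification. After gel separation of ligated and unligated RNAs, reverse transcription with barcoded primers and MiSeq sequencing followed. Only core bases at quality ≥30 passed filtering.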

In order of falling fraction ligated:
1. TCGATGAT T38G G40T A41G  0.576
2. TCAGTGAT T38G G40T A41G  0.392
3. TCGAGATG A30T  0.205
4. TCAGGATG A30T  0.163
5. CGAAGATG T23A A24T A30T  0.0868
6. TCAGAGAT G32T T38G G40T A41G  0.0724
7. CGAAGATG A24T A30T  0.0664
8. TCGATGAT T38G G40T  0.0543
9. TGAAGATG A30T  0.054
10. TCAGAGAT T38G G40T A41G  0.0517
11. TCGATGAT  0.0366
12. TCAGAGGT G32T T38G G40T A41G  0.0316
13. TCAGAGGA G32T G36T T38G G40T A41G  0.0306
14. CGAAGATG A30T  0.0292
15. TCAGTGAT T38G G40T  0.0275
16. TCAGTGAT  0.0235
17. TCAGAGGA G32T G36T T38G G40T  0.0174
18. AGAAGATG A24C A30T  0.0111
19. TCAGTATG  0.011
20. TCGATATG  0.0107
21. AGAAGATG A24T A30T  0.00936
22. AGAAGATG T23A A24C A30T  0.00911
23. TCAGAGTG G32T  0.00848
24. TCAGAGGA G32T G36T T38G T39G G40T A41T  0.00781
25. TCGATGTG  0.0076
26. TCAGAGGA G32T T38G G40T A41G  0.00714
27. TCAGGATG  0.00705
28. TCAGAGGG G32T  0.00695
29. AGAAGATG A30T  0.0065
30. TCGAGATG  0.00545
31. TCAGAGGT G32T T38G G40T  0.00529
32. TCAGTGAG  0.00523
33. TCAGAGTG  0.0048
34. TCAGAGGA G32T T38G G40T  0.00434
35. TCAGTGTG  0.00427
36. TCAGAGAT T38G G40T  0.004
37. TCGATGAG  0.00384
38. TCAGAGGA G32T  0.0037
39. AGAAGATG T23A A24T A30T  0.00339
40. TCAGAGGT G32T  0.00299
41. TCAGAGGA G32T G36T T38G T39G G40T A41T A42C  0.00198
42. TCAGAGGA G32T G36T T38G T39G G40T A41T A42G  0.00154
43. TCAGAGGA G32T G36T T38G T39G G40T A41T A42T  0.00119

Variants of: B2
Assay: as above
Settings: with F1*subA RNA substrate (template-directed ligation), 42 °C
Outline: as §1

In order of rising fraction ligated:
1. TCAGAGGAGTG T23A  0
2. TAGATGGAGTG T23A  0
3. TCAGATGGAGT G35T T38G A40T A41G  0.000378
4. ACAGATGGATG  0.000541
5. ACAGATGGAGT G35T T38G A40T A41G  0.000565
6. ACAGATATGTG  0.000749
7. TCAGATATGTG T23A  0.000828
8. AAGATGGAGTG  0.000852
9. TCAGATATGTG  0.000901
10. TCAGATGGAGT T23A G35T T38G A40T A41G  0.000947
11. TCAATGATGTG T23A  0.00128
12. ACAGAGGAGTG  0.00131
13. TAGAGGATGTG  0.00132
14. TCAGAGGTGTG  0.00137
15. TAGATGGTGTG T23A  0.00156
16. TCAGAGATGTG  0.00161
17. TCAATGGAGTG T23A  0.00168
18. TCAGATGGAGT G35T T38G A40T  0.00171
19. ACAGAGATGTG  0.0018
20. ACAGATGATTG  0.00209
21. ACAGAGGATGT  0.00215
22. TCAGATGATTG T23A  0.00216
23. TCAGAGGATGT T23A  0.00218
24. TAGATGGATGT  0.00222
25. TCAGAGGATTG  0.00228
26. TAGATGGAGTG  0.0023
27. ACAGATGGAGT G35T T38G A40T  0.00236
28. TCAGATGGATG  0.00236
29. TCAGATGGAGT T23A G35T T38G A40T  0.00248
30. ACAATGGTGTG  0.00249
31. ACAGATGGAGT  0.00252
32. ACAAGGATGTG A29T  0.00252
33. AAGAGGATGTG  0.00256
34. TAGATGGATGT T23A  0.00257
35. TCAAGGATGTG T23A  0.00271
36. CAGATGGATGT  0.00272
37. TCAAGGATGTG  0.00272
38. TAGAGGATGTG T23A  0.00277
39. TCAGATGATGT  0.00279
40. TCAGATGGGTG  0.00281
41. CAGATGATGTG T23A  0.00284
42. TCAATGGAGTG  0.00287
43. AAGATGGATGT  0.0029
44. ACAGAGGATGT A40G  0.00295
45. ACAGATGAGTG  0.00298
46. TCAGAGGATTG T23A  0.00302
47. AAGATGGTGTG  0.00306
48. TAGATGATGTG  0.00308
49. TCAATGGTGTG  0.00313
50. TCAGATGAGTG T23A  0.00316
51. ACAATGGAGTG  0.00318
52. TCAATGGTGTG T23A  0.00318
53. TCAGATGAGTG  0.00318
54. ACAATGGATGT  0.00325
55. ACAGATGATGT  0.00327
56. CAGAGGATGTG  0.00332
57. ACAGAGGTGTG  0.00336
58. CAGATGGAGTG T23A  0.00336
59. TAGATGGATTG T23A  0.00337
60. TCAGATGATTG  0.00341
61. CAGATGGAGTG  0.00344
62. TCAGATGGATG T23A  0.00344
63. TCAATGATGTG  0.00347
64. TAAAGGATGTG A29T  0.00359
65. TCAGATGATGT T23A  0.00365
66. TCAGATGGAGT T23A  0.00368
67. TAGATGATGTG T23A  0.00371
68. TCAGAGGATGT  0.00375
69. TCAGAGGTGTG T23A  0.0038
70. ACAATGATGTG  0.00381
71. TAGATGGATGT A40G  0.00383
72. TAGATGGTGTG  0.0039
73. ACAGAGGATTG  0.0039
74. CAGATGATGTG  0.00402
75. TCAGAGGAGTG  0.00402
76. TCAGATGGAGT  0.00402
77. AAAAGGATGTG A29T  0.00415
78. TCAGAGGATGT T23A A40G  0.00415
79. TCAGAGATGTG T23A  0.00422
80. CAAAGGATGTG A29T  0.00429
81. CAGATGGTGTG  0.00442
82. CAGATGGTGTG T23A  0.0045
83. CAAAGGATGTG T23A A29T  0.00472
84. ACAAGGATGTG  0.00477
85. AAGATGGATTG  0.00494
86. TCAATGGATGT T23A  0.00522
87. TAAAGGATGTG T23A A29T  0.00526
88. TCAGATGGAGT A40G  0.00532
89. CAGAGGATGTG T23A  0.00547
90. AAGATGATGTG  0.0055
91. TAGATGGATTG  0.00552
92. AAGAGGATGTG A29T  0.00554
93. CAGATGGATGT T23A  0.00559
94. TCAGAGGATGT A40G  0.00564
95. TCAAGGATGTG A29T  0.00599
96. AAGATGGATGT A40G  0.00604
97. CAGATGGATTG  0.00607
98. TCAAGGATGTG T23A A29T  0.00621
99. ACAGATGATGT A40G  0.00654
100. ACAGATGGAGT A40G  0.00662
101. CAGATGGATTG T23A  0.00704
102. TCAATGGATGT  0.00761
103. TAGATGGATGT T23A A40G  0.00768
104. CAGAGGATGTG A29T  0.00872
105. CAGAGGATGTG T23A A29T  0.00891
106. TCAATGGATGT T23A A40G  0.00963
107. TAGAGGATGTG T23A A29T  0.00989
108. TAGAGGATGTG A29T  0.0101
109. TCAGATGATGT T23A A40G  0.0104
110. ACAATGGATGT A40G  0.0105
111. TCAGATGATGT A40G  0.011
112. ACAATGGATTG  0.0118
113. TCAGATGGAGT G35T  0.0137
114. ACAGATGGAGT G35T  0.014
115. TCAGATGGAGT T23A A40G  0.0153
116. CAGATGGATGT A40G  0.0159
117. TCAATGGATTG T23A  0.0162
118. TCAATGGATGT A40G  0.0177
119. ACAGATGGAGT G35T A40G  0.0182
120. TCAGATGGAGT T23A G35T  0.0188
121. TCAATGGATTG  0.0203
122. CAGATGGATGT T23A A40G  0.0214
123. TCAGATGGAGT G35T A40G  0.0226
124. TCAGATGGAGT T23A G35T A40G  0.0397
